# B1: Myc-tagged ATAD3A (other, human, UniProt Q9NVI7 1-586, looked up)
# chain: MSWLFGINKGPKGEGAGPPPPLPPAQPGAEGGGDRGLGDRPAPKDKWSNFDPTGLERAAKAARELEHSRYAKDALNLAQMQEQTLQLEQQSKLKEYEAAVEQLKSEQIRAQAEERRKTLSEETRQHQARAQYQDKLARQRYEDQLKQQQLLNEENLRKQEESVQKQEAMRRATVEREMELRHKNEMLRVEAEARARAKAERENADIIREQIRLKAAEHRQTVLESIRTAGTLFGEGFRAFVTDWDKVTATVAGLTLLAVGVYSAKNATLVAGRFIEARLGKPSLVRETSRITVLEALRHPIQVSRRLLSRPQDALEGVVLSPSLEARVRDIAIATRNTKKNRSLYRNILMYGPPGTGKTLFAKKLALHSGMDYAIMTGGDVAPMGREGVTAMHKLFDWANTSRRGLLLFVDEADAFLRKRATEKISEDLRATLNAFLYRTGQHSNKFMLVLASNQPEQFDWAINDRINEMVHFDLPGQEERERLVRMYFDKYVLKPATEGKQRLKLAQFDYGRKCSEVARLTEGMSGREIAQLAVSWQATAYASEDGVLTEAMMDTRVQDAVQQHQQKMCWLKAEGPGRGDEPSPS
# notes: also called Myc-ATAD3A; ATAD3A-WT (heterodimer partner); not shown: Myc tag (pCMV-Myc vector)
# B2: ATAD3A-Flag protein (human ATAD3A wildtype, Flag-tagged) (other, UniProt Q9NVI7 1-586, looked up)
# chain: MSWLFGINKGPKGEGAGPPPPLPPAQPGAEGGGDRGLGDRPAPKDKWSNFDPTGLERAAKAARELEHSRYAKDALNLAQMQEQTLQLEQQSKLKEYEAAVEQLKSEQIRAQAEERRKTLSEETRQHQARAQYQDKLARQRYEDQLKQQQLLNEENLRKQEESVQKQEAMRRATVEREMELRHKNEMLRVEAEARARAKAERENADIIREQIRLKAAEHRQTVLESIRTAGTLFGEGFRAFVTDWDKVTATVAGLTLLAVGVYSAKNATLVAGRFIEARLGKPSLVRETSRITVLEALRHPIQVSRRLLSRPQDALEGVVLSPSLEARVRDIAIATRNTKKNRSLYRNILMYGPPGTGKTLFAKKLALHSGMDYAIMTGGDVAPMGREGVTAMHKLFDWANTSRRGLLLFVDEADAFLRKRATEKISEDLRATLNAFLYRTGQHSNKFMLVLASNQPEQFDWAINDRINEMVHFDLPGQEERERLVRMYFDKYVLKPATEGKQRLKLAQFDYGRKCSEVARLTEGMSGREIAQLAVSWQATAYASEDGVLTEAMMDTRVQDAVQQHQQKMCWLKAEGPGRGDEPSPS
# notes: Made cell-free (TNT system) from pcDNA3.1(+)-ATAD3A-Flag for the in vitro assays, or expressed in HEK293 cells; the same construct is used for both here; also called ATAD3A WT; flag-tagged ATAD3A; not shown: Flag tag
# How the values were obtained:
# [1] = target: B2; test: co-IP
# [2] = target: the molecule itself; test: self-association; western blot with or without β-ME, HEK293 cells
# Myc-tagged ATAD3A = target: B1; test: anti-Flag IP, anti-Myc western blot
# [3] = target: T1, Drp1 (endogenous, human cells and tissue) (human, UniProt O00429 1-736, limits assumed); test: IP of total lysates of transfected HEK293 cells
# T1 construct: Endogenous protein in lysates; also called Dynamin-related protein 1
# T1 sequence (O00429 whole entry): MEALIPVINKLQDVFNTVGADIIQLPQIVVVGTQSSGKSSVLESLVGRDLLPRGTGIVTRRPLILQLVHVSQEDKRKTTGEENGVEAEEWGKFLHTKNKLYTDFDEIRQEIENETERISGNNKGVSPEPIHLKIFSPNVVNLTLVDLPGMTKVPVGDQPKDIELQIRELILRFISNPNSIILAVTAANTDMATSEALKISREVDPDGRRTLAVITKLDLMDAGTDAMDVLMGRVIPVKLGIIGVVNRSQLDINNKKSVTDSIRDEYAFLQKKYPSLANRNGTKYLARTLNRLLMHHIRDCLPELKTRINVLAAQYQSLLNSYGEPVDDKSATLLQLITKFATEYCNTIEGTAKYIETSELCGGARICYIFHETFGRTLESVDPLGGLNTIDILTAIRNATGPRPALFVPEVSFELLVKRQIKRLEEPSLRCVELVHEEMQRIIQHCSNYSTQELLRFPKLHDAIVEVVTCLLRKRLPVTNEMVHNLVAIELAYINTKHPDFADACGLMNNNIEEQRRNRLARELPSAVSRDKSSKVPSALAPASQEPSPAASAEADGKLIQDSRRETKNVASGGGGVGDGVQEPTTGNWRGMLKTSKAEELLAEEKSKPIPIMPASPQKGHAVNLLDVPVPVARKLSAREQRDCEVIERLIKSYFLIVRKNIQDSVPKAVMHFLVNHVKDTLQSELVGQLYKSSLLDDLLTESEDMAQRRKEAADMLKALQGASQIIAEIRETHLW
# [4] = target: the molecule itself; test: self-association; western blot under non-reducing conditions
# [5] = target: T1, Drp1 (endogenous, human cells and …); test: anti-Drp1 affinity purification and tandem mass spectrometry, neurons from HD patient iPS cells
binding result [3],Binder,binding result [2],other results
,B1,,binding result [1]: binds
,B2,binds,
no binding,"ATAD3A K135Q (Flag-tagged) (other, human, UniProt Q9NVI7 1-586, looked up, Expressed in HEK293 cells; also called K135Q mutant; acetyl-mimetic ATAD3A K135Q mutant; not shown: Flag tag) MSWLFGINKGPKGEGAGPPPPLPPAQPGAEGGGDRGLGDRPAPKDKWSNFDPTGLERAAKAARELEHSRYAKDALNLAQMQEQTLQLEQQSKLKEYEAAVEQLKSEQIRAQAEERRKTLSEETRQHQARAQYQDQLARQRYEDQLKQQQLLNEENLRKQEESVQKQEAMRRATVEREMELRHKNEMLRVEAEARARAKAERENADIIREQIRLKAAEHRQTVLESIRTAGTLFGEGFRAFVTDWDKVTATVAGLTLLAVGVYSAKNATLVAGRFIEARLGKPSLVRETSRITVLEALRHPIQVSRRLLSRPQDALEGVVLSPSLEARVRDIAIATRNTKKNRSLYRNILMYGPPGTGKTLFAKKLALHSGMDYAIMTGGDVAPMGREGVTAMHKLFDWANTSRRGLLLFVDEADAFLRKRATEKISEDLRATLNAFLYRTGQHSNKFMLVLASNQPEQFDWAINDRINEMVHFDLPGQEERERLVRMYFDKYVLKPATEGKQRLKLAQFDYGRKCSEVARLTEGMSGREIAQLAVSWQATAYASEDGVLTEAMMDTRVQDAVQQHQQKMCWLKAEGPGRGDEPSPS",binds,binding result (Myc-tagged ATAD3A): binds
binds,"ATAD3A K135E (Flag-tagged) (other, human, UniProt Q9NVI7 1-586, looked up, Expressed in HEK293 cells; also called K135E mutant; acetyl-deficient mutant K135E; not shown: Flag tag) MSWLFGINKGPKGEGAGPPPPLPPAQPGAEGGGDRGLGDRPAPKDKWSNFDPTGLERAAKAARELEHSRYAKDALNLAQMQEQTLQLEQQSKLKEYEAAVEQLKSEQIRAQAEERRKTLSEETRQHQARAQYQDELARQRYEDQLKQQQLLNEENLRKQEESVQKQEAMRRATVEREMELRHKNEMLRVEAEARARAKAERENADIIREQIRLKAAEHRQTVLESIRTAGTLFGEGFRAFVTDWDKVTATVAGLTLLAVGVYSAKNATLVAGRFIEARLGKPSLVRETSRITVLEALRHPIQVSRRLLSRPQDALEGVVLSPSLEARVRDIAIATRNTKKNRSLYRNILMYGPPGTGKTLFAKKLALHSGMDYAIMTGGDVAPMGREGVTAMHKLFDWANTSRRGLLLFVDEADAFLRKRATEKISEDLRATLNAFLYRTGQHSNKFMLVLASNQPEQFDWAINDRINEMVHFDLPGQEERERLVRMYFDKYVLKPATEGKQRLKLAQFDYGRKCSEVARLTEGMSGREIAQLAVSWQATAYASEDGVLTEAMMDTRVQDAVQQHQQKMCWLKAEGPGRGDEPSPS",binds,binding result (Myc-tagged ATAD3A): binds
binds,"ATAD3A K135R (Flag-tagged) (other, human, UniProt Q9NVI7 1-586, looked up, Expressed in HEK293 cells; also called K135R mutant; acetyl-deficient mutant K135R; not shown: Flag tag) MSWLFGINKGPKGEGAGPPPPLPPAQPGAEGGGDRGLGDRPAPKDKWSNFDPTGLERAAKAARELEHSRYAKDALNLAQMQEQTLQLEQQSKLKEYEAAVEQLKSEQIRAQAEERRKTLSEETRQHQARAQYQDRLARQRYEDQLKQQQLLNEENLRKQEESVQKQEAMRRATVEREMELRHKNEMLRVEAEARARAKAERENADIIREQIRLKAAEHRQTVLESIRTAGTLFGEGFRAFVTDWDKVTATVAGLTLLAVGVYSAKNATLVAGRFIEARLGKPSLVRETSRITVLEALRHPIQVSRRLLSRPQDALEGVVLSPSLEARVRDIAIATRNTKKNRSLYRNILMYGPPGTGKTLFAKKLALHSGMDYAIMTGGDVAPMGREGVTAMHKLFDWANTSRRGLLLFVDEADAFLRKRATEKISEDLRATLNAFLYRTGQHSNKFMLVLASNQPEQFDWAINDRINEMVHFDLPGQEERERLVRMYFDKYVLKPATEGKQRLKLAQFDYGRKCSEVARLTEGMSGREIAQLAVSWQATAYASEDGVLTEAMMDTRVQDAVQQHQQKMCWLKAEGPGRGDEPSPS",binds,
,"ATAD3A (endogenous, human cells and tissue) (other, UniProt Q9NVI7 2-586, looked up, Endogenous protein in lysates) SWLFGINKGPKGEGAGPPPPLPPAQPGAEGGGDRGLGDRPAPKDKWSNFDPTGLERAAKAARELEHSRYAKDALNLAQMQEQTLQLEQQSKLKEYEAAVEQLKSEQIRAQAEERRKTLSEETRQHQARAQYQDKLARQRYEDQLKQQQLLNEENLRKQEESVQKQEAMRRATVEREMELRHKNEMLRVEAEARARAKAERENADIIREQIRLKAAEHRQTVLESIRTAGTLFGEGFRAFVTDWDKVTATVAGLTLLAVGVYSAKNATLVAGRFIEARLGKPSLVRETSRITVLEALRHPIQVSRRLLSRPQDALEGVVLSPSLEARVRDIAIATRNTKKNRSLYRNILMYGPPGTGKTLFAKKLALHSGMDYAIMTGGDVAPMGREGVTAMHKLFDWANTSRRGLLLFVDEADAFLRKRATEKISEDLRATLNAFLYRTGQHSNKFMLVLASNQPEQFDWAINDRINEMVHFDLPGQEERERLVRMYFDKYVLKPATEGKQRLKLAQFDYGRKCSEVARLTEGMSGREIAQLAVSWQATAYASEDGVLTEAMMDTRVQDAVQQHQQKMCWLKAEGPGRGDEPSPS",,binding result [4]: binds; binding result [5]: binds
,"ATAD3A (endogenous, mouse cells and mouse striatum) (other, UniProt Q925I1 2-591, looked up, Endogenous protein in lysates; also called endogenous ATAD3A) SWLFGIKGPKGEGTGPPLPLPPAQPGAEGGGDRGAGDRPSPKDKWSNFDPTGLERAAKAARELEHSRHAKEALSLAQMQEQTLQLEQQSKLKEYEAAVEQLKSEQIRVQAEERRKTLTEETRQHQARAQYQDKLARQRYEDQLKQQQLLNEENLRKQEESVQKQEAIRRATVEREMELRHKNEMLRVEAEARARAKADRENADIIREQIRLKAAEHRQTILESIRTAGTLLGEGFRAFVTDWDKVTATVAGLTLLAVGVYSAKNATSVAGRYIEARLGKPSLVRETSRISVLEALRHPIQVSRRLVSRPQDALEGVILSPSLEARVRDIAIATRNTKKNKSLYRNVLMYGPPGTGKTLFAKKLALHSGMDYAIMTGGDVAPMGREGVTAMHKVFDWASTSRRGLLLFVDEADAFLRKRATEKISEDLRATLNAFLHRTGQHSSKFMLVLASNQPEQFDWAINDRIDEMVCFALPQREERERLVRMYFDKYVLKPATEGKQRLKVAQFDYGKKCSEVAQLTEGMSGREIAQLAVAWQAMAYSSEDGVLTEAMMDARVQDAVQQHQQKMQWLKVERPDSQTNKPPHPSLLSC",,binding result [4]: binds

# — patent publication US20210322524A1 (CASE WESTERN RESERVE UNIVERSITY, published 2021)
